Test: soluble on expression in E. coli; label from the status in PepcDB or PDB records

Sequence	soluble on expression in E. coli
MRHPIPDYLASLVTELGAVNPGETAQYIPVLAEADPDRFGIALATPTGRLHCAGDADVEFTIQSASKPFTYAAALVDRGFAAVDRQVGLNPSGEAFNELSLEAESHRPDNAMINAGALAVHQLLVGPEASRKERLDRAVEIMSLLAGRRLSVDWETYESEMAVSDRNLSLAHMLRSYGVLQDSAEEIVAGYVAQCAVLVTVKDLAVMGACLATGGIHPMTGERMLPSIVARRVVSVMTSSGMYDAAGQWLADVGIPAKSGVAGGVLGALPGRVGIGVFSPRLDEVGNSARGVLACRRLSEDFRLHLMDGDSLGGTAVRFVEREGDRVFLHLQGVIRFGGAEAVLDALTDLRTGAEKPGTGWDAAVYPRWQEAAADRAALSAATGGGAVHEAAAAAARDENDGPIRTVVLNLARVDRIDDVGRRLIAEGVRRLQADGVRVEVEDPERILPLEEAGAH	soluble
MKKLKVMTVFGTRPEAIKMAPLVLELKKYPEIDSYVTVTAQHRQMLDQVLDAFHIKPDFDLNIMKERQTLAEITSNALVRLDELFKDIKPDIVLVHGDTTTTFAGSLAAFYHQIAVGHVEAGLRTGNKYSPFPEELNRQMTGAIADLHFAPTGQAKDNLLKENKKADSIFVTGNTAIDALNTTVRDGYSHPVLDQVGEDKMILLTAHRRENLGEPMENMFKAIRRIVGEFEDVQVVYPVHLNPVVREAAHKHFGDSDRVHLIEPLEVIDFHNFAAKSHFILTDSGGVQEEAPSLGKPVLVLRDTTERPEGVEAGTLKLAGTDEENIYQLAKQLLTDPDEYKKMSQASNPYGDGEASRRIVEELLFHYGYRKEQPDSFTGKGSHHHHHH	soluble
MAGRVPRLTGHCSILSRTYGHSLMDLAALRFYIAPGKKPVIAAGMPWYMALFGRDSLITSYQCCFIAPDIAFNTLRNLANLQGKEYNYFKDEEPGKILHELRFGEKTLLGKKPYSPYFGSADTCQLFLILLHEVFKWTGNKEFVNEFKEPALKALYWIDNFGDMDGDGYVEYKKRSKEGLDNHCWKDSGTSMIFSDSRLAEAPIATVEFQGYIYDAKIRLAELAEEVWDDPSFAEELRNQAKELKRRFNRDFWIEDRGGYFALGLDKNKEKIDSMTSNMGHLLWSGIVEDDRAGIIVKQLMSRDLYNGWGIRTLSSHDRGYNPIEYHNGTVWPHDNSLIAEGFIKYGYRDEANRIITNLLEASQYFDSRFPEVFAGYQRTEVDFPVSYPTSSIPQAWAAGASMLFLRLILGLEPDRKSQSIKIDPYLPQVIEDICVENIRLFNKKFSVFAGKGRSEIKLSEMAGDPLEHHHHHH	not soluble
MAKYFDIDDILIEEEFVPVLFHKTANGVTIDPSAETNCVSLLIPSAKAEQGSKVELPFWLAHELHLRQAVTINLPPCFDQKTRLEVQADAAYVDLRSRCPYFYEFGCKIEPLVTDRTLGILLSTAFKIRYKEALTKVYTAAHITASKYLSFLTKEETNLYEAAHLSMTAFKKWRTGGPRFQRASILGRKRKDSN	soluble
MGSDKIHHHHHHMKITLNSVSFRYNGDYVLKDVNAEFETGKIYVVVGKNGSGKTTLLKILAGLLEAEGEIFLDGSPADPFLLRKNVGYVFQNPSSQIIGATVEEDVAFSLEIMGLDESEMRKRIKKVLELVGLSGLEKEDPLNLSGGQKQRLAIASMLARDTRFLALDEPVSMLDPPSQREIFQVLESLKNEGKGIILVTHELEYLDDMDFILHISNGTIDFCGSWEEFVEREFDDVEIPFKWKLWKKCGKINLWEDRYENSGNQRRRDTV	not soluble
MEQRFPELNVDLSFEQEFQMRVMEEQVSAMSLQEARELLLQASRLLMMKDNVIRSLVKRAARS	soluble
MAHHHHHHMLTIVDELKAAVMARHEADAPKMKILKEKYKNEKLSDATIDAAYGGMRGITGLIYESSMLDKEQGICFRGMTIPECCEKIPKSWKGGTSPLPEGMLWLLMTGSIPTDKQVKELHVELHRRADNEAITAATKTIASLPENTHPMTQLSTGVLALQAFSKFAPAYASGKAIKSNFWEYALEDSLDIIARTPYLAAAIYNRLTTGRAAVLNPANPDLDWAANFTNMLGYQDEKFWDCMRLYLSLHADHEGGNVSAHATTLVASALSDPYLSFSAGLNGLAGPLHGLANQESLSYLFEMRDKCKAAGVNMKDRKELAAGLEKLTWERLNAKRVIPGYGHAVLRIPDPRYMCLREYCLKHFPDDELFFLVDTIYSIMPDILKKHGKTKNPFPNVDAHSGMLLQHFGLTEQNFYTVLFGISRQLGALTGVVWDRLQGRPIERPKSITSDALFKKFKIE	not soluble
MKRMIVRMTLPLLIVCLAFSSFSASARAASEEKYWDHWIERHAQPLDASNASNKDLRFLKKVLKGKRIVQLGETTHGAGEINATKVRMIKYLHEELGYDVLAFESGFPDTNASYLNMDQLTPKSTMKNSIYAVWHTEDVVELFDYMKEQKEKGDPLILTGFDIQSMKNSFNVAATQWVKAVDPEKAELLSQSENDFSTLVTDSNTFDEFSQKKEKLVKNYQKLIKFTKTHASELKENLPKEPKAYEMFMHSLQLRIDVMETYMLEEMKEKLEEYPENIEDFSFFMRDRMMAEQFQWVADTLYPKKKIIVWGHNYHLRKQNTKMIKDWVQLNGPNMGDYLPERLKKQTYTIGIYAYSGASLDSSDNKTVKPVTSPPPSGSLEALLKAADRPAVFVDFLHTKNKKGTSWMYTPRTALYWGYMEEQMILKEQYDGVIWLEHITPSVIIKLEHHHHHH	not soluble
MGHHHHHHSHMKSREGSVHPQVEIANLLLIQSSLANLPPGPCWFCLASPEVEKHLVVNIGTHCYLALAKGGLSDDHVLILPIGHYQSVVELSAEVVEEVEKYKATLRRFFKSRGKWCVVFERNYKSHHLQLQVIPVPISCSTTDDIKDAFITQAQEQQIELLEIPEHSDIKQIAQPGAAYFYVELDTGEKLFHRIKKNFPLQFGREVLASEAILNVPDKSDWRQCQISKEDEETLARRFRKDFEPYDFTLDD	not soluble
MGSDKIHHHHHHMEHLLHYVWKHKLFPLKILQTTKGLLVEIIDSGLQNPDAGPDFFNAKLKIDGTLWVGNIEIHTHSSDWYRHGHDHDKTYDSVILHVVAEADAEVTRSNGEQIPQLLLTCPENVQTHYHELCIADQYPACYSIIGSLSKLTIHSWLTALQTERLEQKARQIADRLERCDRHWEDAFFITLARNFGFGLNGDAFETWAGLLPFRAIDKHRNDLFQIEAFFFGQAGLLEEAFLKKEQEDEYSLRLRKEFRYLQRKFELNQVMDAGLWRFLRLRPENFPHIRLAQLAYLYQKVDKLFSQMMEAETLPEVRQLLSTHASAYWDNHYIFGRPSPQREKSMGEKSQDLIVINTVVPFLYAYGLHRTDERMCDRAGRFLEELKAENNHIIRSWGDAGLPVGSAADSQALIQLRKEYCDKRKCLFCRFGYEYLRKK	not soluble
MAHHHHHHMQKLRADWTKHFDSEKASMTAFRDYDFERRVNDMRRLQNAVDHFDHAVRQGMMAMKEIASAYEAVGQAFTELTLTNNNPVPGPGEAEEPNPYPTEADVQYMSQPNAGAAAADYAASVASTRMPDEANSQVRRLAKTFAEEARRINEGPPFQSYNAGIHRDVHNRLLPVLEHLKSINEYRHKHIEALERYNKYKAEVEKVEKHYTKKGKPFCDSKGHKKYTEKRDEAWKEYITRRDKFNKTFGMLMEVNDHAAAQIIHRYLVLNHEYLQQLVASMDRVLPAMAEVYPLNNEYNSLQNTLILEAVANAKTPFADHSKIRSKQADSDKSDGAGDERHEDVQEAMDAHYEAQQSTLTSMSSDGGSNLASGSRLEDSVSYDAHVNPSTALESMEQPPDPEQDDV	soluble
MKVGYLGPAATFTHLAVSSCFQNGAEHVAYRTIPECIDAAVAGEVDFAFVPLENALEGSVNLTIDYLIHEQPLPIVGEMTLPIHQHLLVHPSRENAWKELDKIYSHSHAIAQCHKFLHRHFPSVPYEYANSTGAAAKFVSDHPELNIGVIANDMAASTYELKIVKRDIQDYRDNHTRFVILSPDENISFEVNSKLSSRPKTTLMVMLPQDDQSGALHRVLSAFSWRNLNLSKIESRPTKTGLGHYFFIIDIEKAFDDVLIPGAMQELEALGCKVRLLGAYQSYQLMAGDPLEHHHHHH	not soluble
MTHTVHLHLEETDNLALQRLCGSFDNNLDLLAKALDIHISRRFEHFTFNGAFAHAGKRALLKLLETAQTRDLNDGDIRLAAVEAQTEDAGHQEKNHDHAYYFRTKRGSIGGRTPRQNGYIRALLNHDIVFGLGPAGTGKTYLAVAAAVDAMEKHQVERIILVRPAVEAGEKLGFLPGDLTQKVDPYLRPLYDALYDLMGFDRVTKLIEKGLIEIAPLAYMRGRTLNGAYIILDEAQNTTPEQMKMFLTRIGFGAKAVITGDTSQIDLPKNIKSGLKDAREKLHNVEGLYFHTFTGEDVVRHPLVQKIVEAYESAEHD	not soluble
